Experimental findings from patent publication US20020197702A1 are described below.

Experiment in all cases: cell-based or functional assay
For assay [1], the target named is affinity purified membrane derived caspase-3 from 697 cell heavy membranes (human) (UniProt P42574).
The target in assay [2] is r-caspase-3 (His)6 (human) (UniProt P42574).
Assay [3] addresses T1, 697 Bcl-2 HM (caspase-1 treated) caspase (human) (UniProt P42574).
T1 sequence 1: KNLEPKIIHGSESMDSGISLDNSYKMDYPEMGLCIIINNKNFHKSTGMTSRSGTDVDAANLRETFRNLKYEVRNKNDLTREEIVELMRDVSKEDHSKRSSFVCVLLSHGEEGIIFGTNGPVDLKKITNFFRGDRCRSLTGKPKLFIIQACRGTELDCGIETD
T1 sequence 2: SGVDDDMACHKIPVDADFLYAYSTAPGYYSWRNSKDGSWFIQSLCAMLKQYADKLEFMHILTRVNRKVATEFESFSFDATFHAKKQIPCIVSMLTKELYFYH

Assay [4] has as its target T2, 697-neo HM (caspase-1 treated) caspase (human) (UniProt P42574).
T2 sequence 1: T1 sequence 1
T2 sequence 2: T1 sequence 2

Assay [5] has as its target 697-neo HM (spontaneous activity) caspase (human) (UniProt P42574).

Take “Protein p35 (early p35 protein from Autographa californica nuclear polyhedrosis virus) (from UniProt P08160 1-299)”: the IC50, inhibition of DEVD-AMC cleavage activity in assay [1] was determined as 0.074 nM; in assay [2] it was 0.041 nM.
On to YVAD-ald (peptide), for which the IC50, inhibition of DEVD-amc cleavage in assay [3], in assay [4] and in assay [5] was above 10000 nM in each case.
